Target: β-arrestin2 (UniProt P32121)
Experiment: BRET, MOR-Nluc and β-arrestin2-Venus
Settings: for other: Emax, vehicle-subtracted BRET ratio: reference: vehicle

Q: Which percent of reference (reference: DAMGO, sites T376,T379) does the source give for “mu-opioid receptor (MOR, mMOR) (from UniProt P42866) morphine” here?
A: The percent of reference was “weaker; reference 100”.

Q: For “mu-opioid receptor (MOR, mMOR) (from UniProt P42866) DAMGO, 10 min”, which other: Emax, vehicle-subtracted BRET ratio (sites T370,S375,T376,T379) is on record?
A: The other: Emax, vehicle-subtracted BRET ratio was 0.07 BRET ratio.

Q: How did the other: Emax, vehicle-subtracted BRET ratio (sites S375) turn out when “mu-opioid receptor (MOR, mMOR) (from UniProt P42866) morphine, 10 min” was run?
A: Its other: Emax, vehicle-subtracted BRET ratio is 0.008 BRET ratio.
